Results taken from the supplement of paper PMC10724198.
± gives the standard deviation of the averaged measurements.

Experiments:
Saccharomyces cerevisiae [1] = assay: protein stability index of tFT-peptide fusion (C-terminal peptide) (PSI (0-1 scale)); higher = more stable (slower turnover); conditions: genetic background: wild type; temperature: 30 C
Saccharomyces cerevisiae [2] = assay: as above
Description: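 MPS profiling in S. cerevisiae of the tFT-X12 degron library: putative degron peptides plus stable controls, 12 aa, fused to the C-terminus of a sfGFP-mCherry timer. Cells are FACS-sorted into 8 mCherry/sfGFP bins and deep-sequenced. PSI runs from 0 (unstable) to 1 (stable). Backgrounds are wild type, das1Δ and doa10Δ at 30 °C, and wild type, das1Δ, cdc34-1 and cdc53-1 at 37 °C; 2-3 technical replicates each.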

[3] = genetic background: cdc34-1, temperature: 37 C
[4] = genetic background: cdc53-1, temperature: 37 C
[5] = genetic background: das1 deletion, temperature: 30 C
[6] = genetic background: das1 deletion, temperature: 37 C
[7] = genetic background: doa10 deletion, temperature: 30 C
[8] = genetic background: wild type, temperature: 30 C
[9] = genetic background: wild type, temperature: 37 C
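Further: PSI is a weighted mean of sequencing reads over stability bins, variants kept only with over 10 reads, mCherry proximal and sfGFP distal, peptide attached via GGGS linker.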

| Sequence | protein stability index (Saccharomyces cerevisiae [1]) | protein stability index (Saccharomyces cerevisiae [2]; [3]) | protein stability index (Saccharomyces cerevisiae [2]; [4]) | protein stability index (Saccharomyces cerevisiae [2]; [5]) | protein stability index (Saccharomyces cerevisiae [2]; [6]) | protein stability index (Saccharomyces cerevisiae [2]; [7]) | protein stability index (Saccharomyces cerevisiae [2]; [8]) | protein stability index (Saccharomyces cerevisiae [2]; [9]) |
| --- | --- | --- | --- | --- | --- | --- | --- | --- |
| WLVIWPRKLSTV | 0.481 ± 0.0083 | 0.588 ± 0.039 | 0.632 ± 0.005 | 0.477 ± 0.027 | 0.6179 ± 0.0036 | 0.359 ± 0.014 | 0.397 ± 0.022 | 0.573 ± 0.031 |
| WVYVFVSLFFVV | 0.263 ± 0.0029 | 0.185 ± 0.0071 | 0.2552 ± 0.0011 | 0.204 ± 0.029 | 0.347 ± 0.013 | 0.196 ± 0.017 | 0.17 ± 0.018 | 0.289 ± 0.0062 |
| VCLWVEVLIVLG | 0.209 ± 0.011 | 0.0839 ± 0.023 | 0.205 ± 0.056 | 0.136 ± 0.03 | 0.25 ± 0.014 | 0.106 ± 0.031 | 0.129 ± 0.021 | 0.183 ± 0.0078 |
| VFLVRTVTQISA | 0.304 ± 0.017 | 0.289 ± 0.02 | 0.371 ± 0.033 | 0.291 ± 0.025 | 0.445 ± 0.015 | 0.219 ± 0.0079 | 0.254 ± 0.028 | 0.397 ± 0.016 |
| WIVQCCLYVPVQ | 0.377 ± 0.0076 | 0.288 ± 0.011 | 0.314 ± 0.017 | 0.25 ± 0.025 | 0.3619 ± 0.0011 | 0.212 ± 0.0053 | 0.237 ± 0.02 | 0.356 ± 0.024 |
| LIAPSACNLFLF | 0.412 ± 0.032 | 0.639 ± 0.04 | 0.7535 ± 0.0061 | 0.682 ± 0.015 | 0.7584 ± 0.0066 | 0.288 ± 0.0042 | 0.308 ± 0.018 | 0.5569 ± 0.005 |
| LFFVCSGVVFSF | 0.507 ± 0.04 | 0.514 ± 0.052 | 0.5482 ± 0.0011 | 0.407 ± 0.03 | 0.5829 ± 0.0055 | 0.38 ± 0.01 | 0.384 ± 0.031 | 0.558 ± 0.011 |
| FGRAVWSRFCIV | 0.172 ± 0.064 | 0.604 ± 0.044 | 0.735 ± 0.029 | 0.601 ± 0.0099 | 0.736 ± 0.0076 | 0.13 ± 0.015 | 0.128 ± 0.03 | 0.177 ± 0.032 |
| WSFAPRLRCSYL | 0.809 ± 0.055 | 0.927 ± 0.0095 | 0.925 ± 0.012 | 0.784 ± 0.029 | 0.883 ± 0.012 | 0.7642 ± 0.004 | 0.792 ± 0.048 | 0.878 ± 0.029 |
| IFFYPFLIFCFV | 0.325 ± 0.018 | 0.251 ± 0.022 | 0.281 ± 0.026 | 0.267 ± 0.027 | 0.396 ± 0.019 | 0.2722 ± 0.00072 | 0.238 ± 0.032 | 0.332 ± 0.012 |
| FFSQLFLEIVAA | 0.257 ± 0.031 | 0.0642 ± 0.024 | 0.0709 ± 0.031 | 0.179 ± 0.03 | 0.196 ± 0.011 | 0.14 ± 0.018 | 0.175 ± 0.029 | 0.171 ± 0.027 |
| KEKGVTKIRISS | 0.295 ± 0.0055 | 0.6166 ± 0.0019 | 0.6861 ± 0.0021 | 0.632 ± 0.024 | 0.7071 ± 0.0024 | 0.1724 ± 0.00028 | 0.195 ± 0.037 | 0.377 ± 0.024 |
| FCVLLFFFPLII | 0.363 ± 0.024 | 0.272 ± 0.012 | 0.293 ± 0.04 | 0.271 ± 0.029 | 0.402 ± 0.0046 | 0.376 ± 0.037 | 0.261 ± 0.015 | 0.374 ± 0.012 |
| FFFPFLCIAVSL | 0.458 ± 0.022 | 0.464 ± 0.036 | 0.474 ± 0.016 | 0.418 ± 0.034 | 0.472 ± 0.0053 | 0.4007 ± 0.0018 | 0.413 ± 0.018 | 0.436 ± 0.011 |
| WYLLCESCLLCL | 0.494 ± 0.0075 | 0.534 ± 0.021 | 0.536 ± 0.0079 | 0.406 ± 0.025 | 0.562 ± 0.011 | 0.39 ± 0.013 | 0.408 ± 0.025 | 0.558 ± 0.0046 |
| LSRHLILFIVIR | 0.272 ± 0.036 | 0.0962 ± 0.042 | 0.0846 ± 0.02 | 0.172 ± 0.014 | 0.2805 ± 0.0024 | 0.289 ± 0.019 | 0.174 ± 0.019 | 0.2008 ± 0.00073 |
| FFLFILYFGSCF | 0.399 ± 0.029 | 0.358 ± 0.025 | 0.422 ± 0.0051 | 0.349 ± 0.034 | 0.481 ± 0.0073 | 0.362 ± 0.017 | 0.329 ± 0.012 | 0.448 ± 0.017 |
| SRLVIGRWSVLV | 0.318 ± 0.019 | 0.567 ± 0.045 | 0.617 ± 0.016 | 0.492 ± 0.03 | 0.6346 ± 0.0035 | 0.177 ± 0.013 | 0.217 ± 0.034 | 0.442 ± 0.0031 |
| SSVCLYWCCLFV | 0.432 ± 0.011 | 0.522 ± 0.036 | 0.602 ± 0.013 | 0.443 ± 0.041 | 0.535 ± 0.016 | 0.407 ± 0.0018 | 0.426 ± 0.027 | 0.5166 ± 0.00058 |
| VLGLYSLLLSFF | 0.337 ± 0.007 | 0.567 ± 0.068 | 0.6627 ± 0.0015 | 0.524 ± 0.034 | 0.644 ± 0.016 | 0.277 ± 0.013 | 0.305 ± 0.0096 | 0.4532 ± 0.0012 |

| Sequence | protein stability index (Saccharomyces cerevisiae [1]) | protein stability index (Saccharomyces cerevisiae [2]; [3]) | protein stability index (Saccharomyces cerevisiae [2]; [4]) | protein stability index (Saccharomyces cerevisiae [2]; [5]) | protein stability index (Saccharomyces cerevisiae [2]; [6]) | protein stability index (Saccharomyces cerevisiae [2]; [7]) | protein stability index (Saccharomyces cerevisiae [2]; [8]) | protein stability index (Saccharomyces cerevisiae [2]; [9]) |
| --- | --- | --- | --- | --- | --- | --- | --- | --- |
| GSRRYYFTWVYQ | 0.1178 ± 0.00012 | 0.454 ± 0.038 | 0.697 ± 0.013 | 0.655 ± 0.019 | 0.722 ± 0.019 | 0.0716 ± 0.016 | 0.0885 ± 0.015 | 0.0876 ± 0.024 |
| RLRWLSPMTHVG | 0.463 ± 0.012 | 0.634 ± 0.013 | 0.7337 ± 0.0061 | 0.666 ± 0.025 | 0.726 ± 0.024 | 0.263 ± 0.0086 | 0.286 ± 0.016 | 0.5802 ± 0.0019 |
| FCASCLVCFIYL | 0.462 ± 0.023 | 0.492 ± 0.0074 | 0.501 ± 0.0053 | 0.426 ± 0.024 | 0.5207 ± 0.0051 | 0.444 ± 0.026 | 0.421 ± 0.031 | 0.517 ± 0.019 |
| VFSLAFYLVLFF | 0.343 ± 0.056 | 0.326 ± 0.063 | 0.349 ± 0.0065 | 0.346 ± 0.025 | 0.46 ± 0.015 | 0.415 ± 0.011 | 0.319 ± 0.029 | 0.418 ± 0.037 |
| FRDRFLRWNLVS | 0.223 ± 0.022 | 0.481 ± 0.073 | 0.676 ± 0.013 | 0.6489 ± 0.0058 | 0.757 ± 0.025 | 0.129 ± 0.026 | 0.14 ± 0.025 | 0.21 ± 0.02 |
| FRVFYSFLLCLS | 0.22 ± 0.0028 | 0.194 ± 0.0057 | 0.189 ± 0.01 | 0.228 ± 0.015 | 0.307 ± 0.0087 | 0.178 ± 0.0048 | 0.162 ± 0.0088 | 0.219 ± 0.0085 |
| LSAVISLRIQLS | 0.449 ± 0.021 | 0.595 ± 0.093 | 0.603 ± 0.051 | 0.518 ± 0.032 | 0.546 ± 0.0071 | 0.3636 ± 0.0016 | 0.379 ± 0.04 | 0.4919 ± 0.0018 |
| VCPWGYCSEWGF | 0.759 ± 0.013 | 0.772 ± 0.047 | 0.82244 ± 0.00034 | 0.697 ± 0.023 | 0.8015 ± 0.0031 | 0.692 ± 0.043 | 0.687 ± 0.014 | 0.7887 ± 0.006 |
| YVSIWSPILWLA | 0.117 ± 0.024 | 0.1694 ± 0.0014 | 0.262 ± 0.012 | 0.293 ± 0.028 | 0.453 ± 0.0083 | 0.0697 ± 0.007 | 0.0628 ± 0.017 | 0.0657 ± 0.016 |
| YPVGAAFIRARA | 0.491 ± 0.011 | 0.45 ± 0.016 | 0.501 ± 0.021 | 0.361 ± 0.036 | 0.5378 ± 0.0026 | 0.326 ± 0.0087 | 0.377 ± 0.026 | 0.5174 ± 0.0047 |
| LFLFFFLPPLLF | 0.446 ± 0.028 | 0.4247 ± 0.0027 | 0.407 ± 0.0056 | 0.373 ± 0.025 | 0.484 ± 0.021 | 0.439 ± 0.018 | 0.366 ± 0.009 | 0.461 ± 0.026 |
| GGSHVWKFYRNF | 0.4225 ± 0.0038 | 0.702 ± 0.09 | 0.7673 ± 0.0011 | 0.662 ± 0.031 | 0.767 ± 0.034 | 0.224 ± 0.0086 | 0.285 ± 0.027 | 0.5523 ± 0.0027 |
| LPLQPPPPVCLP | 0.376 ± 0.022 | 0.65583 ± 3.7e-05 | 0.7163 ± 0.0065 | 0.629 ± 0.024 | 0.7199 ± 0.0036 | 0.634 ± 0.031 | 0.644 ± 0.018 | 0.69 ± 0.011 |
| VQWPLLVVGCMG | 0.399 ± 0.028 | 0.271 ± 0.016 | 0.312 ± 0.04 | 0.263 ± 0.029 | 0.401 ± 0.0053 | 0.211 ± 0.015 | 0.251 ± 0.036 | 0.361 ± 0.011 |
| FFVLGPVVMSIH | 0.3849 ± 0.0033 | 0.278 ± 0.046 | 0.383 ± 0.032 | 0.285 ± 0.031 | 0.423 ± 0.02 | 0.2657 ± 0.0021 | 0.266 ± 0.038 | 0.4054 ± 0.0027 |
| LVCLVFVRSSLV | 0.339 ± 0.022 | 0.268 ± 0.0043 | 0.571 ± 0.079 | 0.25 ± 0.024 | 0.529 ± 0.0096 | 0.205 ± 0.0029 | 0.232 ± 0.038 | 0.457 ± 0.017 |
| LFLSFLLLYFRP | 0.351 ± 0.039 | 0.269 ± 0.019 | 0.219 ± 0.022 | 0.311 ± 0.037 | 0.4223 ± 0.0015 | 0.439 ± 0.021 | 0.313 ± 0.015 | 0.402 ± 0.0086 |
| LVCSRFLFAFHC | 0.145 ± 0.011 | 0.45678 ± 0.00016 | 0.686 ± 0.022 | 0.604 ± 0.037 | 0.699 ± 0.014 | 0.076 ± 0.0097 | 0.0796 ± 0.0047 | 0.104 ± 0.012 |
| PFLSLPFLFPSS | 0.531 ± 0.14 | 0.715 ± 0.026 | 0.769 ± 0.012 | 0.684 ± 0.0075 | 0.7675 ± 0.0052 | 0.687 ± 0.027 | 0.696 ± 0.027 | 0.757 ± 0.016 |
